From publication PMC11148156, “Substrate scope expansion of 4-phenol oxidases by rational enzyme selection and sequence-function relations” (Communications Chemistry, 2024)

What was measured:
NspEUGO = molecular target: T1, NspEUGO (Nocardioides sp. YR527, UniProt A0A1G9AL67); test: xylenol orange assay (initial rate); type: biochemical; conditions: 2 mM substrate, 50 mM potassium phosphate pH 7.5
T1 construct: gene SAMN05428985_103382; recombinant, expressed in E. coli; flavin-dependent; details in supplement
T1 sequence (A0A1G9AL67 1-529): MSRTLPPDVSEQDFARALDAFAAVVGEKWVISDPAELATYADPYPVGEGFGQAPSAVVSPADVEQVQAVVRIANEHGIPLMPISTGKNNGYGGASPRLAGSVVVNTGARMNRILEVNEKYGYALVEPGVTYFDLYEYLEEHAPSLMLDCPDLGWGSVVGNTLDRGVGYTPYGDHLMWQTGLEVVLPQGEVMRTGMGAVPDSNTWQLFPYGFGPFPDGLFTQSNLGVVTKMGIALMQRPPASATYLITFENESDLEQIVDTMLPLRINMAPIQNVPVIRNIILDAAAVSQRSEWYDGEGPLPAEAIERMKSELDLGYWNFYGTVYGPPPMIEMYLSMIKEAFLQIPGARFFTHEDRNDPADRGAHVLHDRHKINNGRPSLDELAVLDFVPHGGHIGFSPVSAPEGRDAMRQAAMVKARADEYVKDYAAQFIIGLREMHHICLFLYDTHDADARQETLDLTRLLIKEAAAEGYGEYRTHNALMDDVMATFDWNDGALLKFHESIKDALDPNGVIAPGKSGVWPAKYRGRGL

RjEUGO = molecular target: T2, RjEUGO (Rhodococcus jostii, UniProt Q0SBK1); test: xylenol orange assay (initial rate); type: biochemical; conditions: 2 mM substrate, 50 mM potassium phosphate pH 7.5
T2 construct: gene RHA1_ro03282; recombinant, expressed in E. coli; flavin-dependent; details in supplement
T2 sequence (Q0SBK1 1-526): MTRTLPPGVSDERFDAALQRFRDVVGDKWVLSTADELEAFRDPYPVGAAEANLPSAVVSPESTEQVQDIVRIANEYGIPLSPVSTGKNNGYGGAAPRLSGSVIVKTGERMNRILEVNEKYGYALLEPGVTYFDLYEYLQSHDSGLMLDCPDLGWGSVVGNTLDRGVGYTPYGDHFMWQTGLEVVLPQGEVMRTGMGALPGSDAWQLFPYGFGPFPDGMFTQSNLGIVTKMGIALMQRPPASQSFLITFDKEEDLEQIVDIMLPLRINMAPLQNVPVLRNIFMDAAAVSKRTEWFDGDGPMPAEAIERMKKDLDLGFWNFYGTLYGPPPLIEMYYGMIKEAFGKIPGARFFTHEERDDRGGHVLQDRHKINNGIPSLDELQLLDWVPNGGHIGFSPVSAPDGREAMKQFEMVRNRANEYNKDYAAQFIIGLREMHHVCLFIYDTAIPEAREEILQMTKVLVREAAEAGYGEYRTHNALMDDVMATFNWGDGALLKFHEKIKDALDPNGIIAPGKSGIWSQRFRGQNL

[1] = substrate: C=CCc1ccc(O)c(OC)c1; test: Michaelis-Menten kinetics; type: biochemical, Arthrobacter sp. UCD-GKA; conditions: optimal conditions for both enzymes (see supplement)
[2] = substrate: COc1cc(CO)ccc1O; test: Michaelis-Menten kinetics; type: biochemical, Arthrobacter sp. UCD-GKA; conditions: optimal conditions for both enzymes (see supplement)
[3] = substrate: OCc1ccc(O)cc1; test: Michaelis-Menten kinetics; type: biochemical, Arthrobacter sp. UCD-GKA; conditions: pH 9.5
[4] = substrate: C=CCc1ccc(O)c(OC)c1; test: Michaelis-Menten kinetics; type: biochemical, Geodermatophilaceae bacterium; conditions: optimal conditions for both enzymes (see supplement)
[5] = substrate: COc1cc(CO)ccc1O; test: Michaelis-Menten kinetics; type: biochemical, Geodermatophilaceae bacterium; conditions: optimal conditions for both enzymes (see supplement)
[6] = substrate: OCc1ccc(O)cc1; test: Michaelis-Menten kinetics; type: biochemical, Geodermatophilaceae bacterium; conditions: pH 9.5

CCCCOCc1ccc(O)c(OC)c1 [compound 13, vanillyl butyl ether]
xylenol orange assay (initial rate) (NspEUGO): NspEUGO which is the most active wildtype enzyme on vanillyl butyl ether

Oc1ccc(C2CCCC2)cc1 [compound 42, 4-cyclopentyl phenol]
xylenol orange assay (initial rate) (RjEUGO): RjEUGO which was the most active wildtype enzyme for 4-cyclopentyl phenol

B1: AspEUGO (Arthrobacter sp. UCD-GKA) (protein)
chain: MSRIIPLDVSEADFDAALEEFRGALGAQWVLSSPVELEAFADPYPTTNGLEFLPGAVISPSTPEEVQVIVGIANKYKVPLSPVSTGKNLGYGGAAPRLSGTVVVNTGERMNKIIEVNEKYAFALVEPGVTYFDLYNHIQEKGYNLWIDVPDLGWGSIVGNTLDRGVGYTPYGDHWSWQTGLEVVLPDGDLLRTGMGAMSGSDAWQLFPYGFGPYPDGLFSQSNYGIVTKLGIALMPAPPASETFLITFENEADLEQVIDIMLPLRIGMAPLQNVPVLRNIFMDAAAVSHRDEWHAGPGHLSDDEIKTMQRELNLGYWNLYASVYGPPPQIEMFLAMIKEAFLQVPGARFATTKDRPESPEDRGGHVLHDRHKINRGIPTIEERHLMDWVPNGGHTSFSPVSAPDGKDAMRQALMVKKRADEFGQDYAAQFIVGLREMHHICLFLYNTAVPRERDNTLAMARILVEEAADAGYGEYRTHLALMDQVMATFDYNDGALLRFHERVKDALDPNSIMAPGKSGIWGARYRDRGLELLHAPALEDSTPNSA
notes: recombinant, expressed in E. coli; flavin-dependent; details in supplement
Km [1]: 28 ± 1 µM | kcat [1]: 21 ± 0.4 s⁻¹ | Km [2]: 49 ± 3 µM | kcat [2]: 24 ± 0.8 s⁻¹ | Km [3]: 33 ± 2 µM | kcat [3]: 18 ± 1 s⁻¹

B2: GbEUGO (Geodermatophilaceae bacterium) (protein)
chain: MSRILPPELSDSDFDAAIARFRDVVGEKHVLTEDGDLSRYRDPYPVGGQPSGGASAAVAPETSEQVQEIVRIANEYGVPLSPISTGKNNGYGGGQPRLSGAVVVDTGLRMNRILEVNEKFGYALLEPGVSYFDLYEHLQANAPSLMLDCPDLGWGSVVGNTLDRGVGYTPYGDHLMWQTGLEVVLPTGDVMRTGMGAVPGSNAWQLFPYGFGPFPDGLFTQSNLGIVTKMGIALMQRPPASETFVISFDREEDLEQVVDIMLPLRINMAPLQNVPVLRNIILDAGVVSKRTEWHDGDGPLPPEAISRMKAELGLGYWNLYGTVYGPPPVLEAHLGIIKDAFLQVPGSRFATTQDRDEATDRGAHVLHDRHRINNGIPSLDEMKLMEFVPNGGHIGFSPVSAPDGADALRQSQMVRRRADEYRKDYAAQFIVGLREMHHIGLFLFDTTDAVARQETLDLARVLIDEAAAAGYGEYRTHNALMDQVMGTYNWGGDALLKFHETIKDALDPNSVMAPGKSGIWGRKYRDRALA
notes: as for B1
Km [4]: 23 ± 1 µM | kcat [4]: 23 ± 0.2 s⁻¹ | Km [5]: 31 ± 1 µM | kcat [5]: 16 ± 0.4 s⁻¹ | Km [6]: 455 ± 50 µM | kcat [6]: 18 ± 1 s⁻¹
